Test [1] has as its target recombinant human calcitonin receptor (hCT-R) (human), P30988. Put plainly: cell-based or functional assay.
Test [2] addresses recombinant human amylin 3 receptor (hAMYR3) (human), P30988. Put plainly: cell-based or functional assay.

Numbered stars: 1 amine (or outer) side, 2 acyl side, 3 side chain; on linkers, the order of the positions; unused ones are H or OH. Bridge positions count the residues as written; N and C are the ends. Square brackets hold non-standard residues; d marks the D form. * marks the point of attachment. C20 diacid = O=C(O)CCCCCCCCCCCCCCCCCCC(=O)*; γGlu = O=C(O)[C@H](CCC(=O)[*:2])N[*:1]; Hyp = O=C(O)[C@@H]1C[C@@H](O)CN1; NMeI = CC[C@H](C)[C@H](NC)C(=O)O; Aad = N[C@@H](CCCC(=O)O)C(=O)O; Orn = NCCC[C@H](N)C(=O)O; Sar = CNCC(=O)O

recombinant human amylin 3 receptor (hAMYR3) (human), P30988, sequence (P30988 25-474, chain 1 of 2): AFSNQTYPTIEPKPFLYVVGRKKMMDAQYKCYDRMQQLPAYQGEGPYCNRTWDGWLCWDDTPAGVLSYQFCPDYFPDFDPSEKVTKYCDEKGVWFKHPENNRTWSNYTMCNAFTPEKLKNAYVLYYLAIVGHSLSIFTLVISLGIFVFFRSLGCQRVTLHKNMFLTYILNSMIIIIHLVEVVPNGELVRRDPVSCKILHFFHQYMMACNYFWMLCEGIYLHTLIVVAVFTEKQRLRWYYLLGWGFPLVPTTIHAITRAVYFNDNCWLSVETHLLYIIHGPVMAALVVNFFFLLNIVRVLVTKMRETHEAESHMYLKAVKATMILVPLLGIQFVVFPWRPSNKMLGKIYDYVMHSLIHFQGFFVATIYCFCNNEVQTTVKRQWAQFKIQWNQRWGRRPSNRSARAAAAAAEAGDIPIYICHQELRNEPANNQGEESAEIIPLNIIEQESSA
recombinant human amylin 3 receptor (hAMYR3) (human), P30988, sequence (O60896 24-148, chain 2 of 2, further chain): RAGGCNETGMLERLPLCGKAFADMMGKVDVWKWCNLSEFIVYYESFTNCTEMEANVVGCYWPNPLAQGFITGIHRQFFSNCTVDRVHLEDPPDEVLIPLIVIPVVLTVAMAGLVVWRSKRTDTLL
recombinant human calcitonin receptor (hCT-R) (human), P30988, sequence (P30988 25-474): as the sequence (P30988 25-474, chain 1 of 2) above

B1: Compound 9 (peptide)
peptide: {C20 diacid-γGlu}-RDGTAT[Orn]ATQRLAHFLQRSSF[Sar]A[NMeI]PSSTEVGSNT[Hyp]-NH2
modifications: lactam 2-7
SMILES: CC[C@H](C)[C@@H](C(=O)N1CCC[C@H]1C(=O)N[C@@H](CO)C(=O)N[C@@H](CO)C(=O)N[C@H](C(=O)N[C@@H](CCC(=O)O)C(=O)N[C@H](C(=O)NCC(=O)N[C@@H](CO)C(=O)N[C@@H](CC(N)=O)C(=O)N[C@H](C(=O)N1C[C@H](O)C[C@H]1C(N)=O)[C@@H](C)O)C(C)C)[C@@H](C)O)N(C)C(=O)[C@H](C)NC(=O)CN(C)C(=O)[C@H](Cc1ccccc1)NC(=O)[C@H](CO)NC(=O)[C@H](CO)NC(=O)[C@H](CCCNC(=N)N)NC(=O)[C@H](CCC(N)=O)NC(=O)[C@H](CC(C)C)NC(=O)[C@H](Cc1ccccc1)NC(=O)[C@H](Cc1c[nH]cn1)NC(=O)[C@H](C)NC(=O)[C@H](CC(C)C)NC(=O)[C@H](CCCNC(=N)N)NC(=O)[C@H](CCC(N)=O)NC(=O)[C@@H](NC(=O)[C@H](C)NC(=O)[C@@H]1CCCNC(=O)C[C@H](NC(=O)[C@H](CCCNC(=N)N)NC(=O)CC[C@H](NC(=O)CCCCCCCCCCCCCCCCCCC(=O)O)C(=O)O)C(=O)NCC(=O)N[C@@H]([C@@H](C)O)C(=O)N[C@@H](C)C(=O)N[C@@H]([C@@H](C)O)C(=O)N1)[C@@H](C)O
Regarding B1, the hCT-R EC50 [nM] (cAMP formation, 1321N1 cells expressing hCT-R) in test [1] came out at 0.027 nM. Further, the hAMYR3 EC50 [nM] (cAMP formation, 1321N1 cells expressing hAMYR3) in test [2] was 0.013 nM.

B2: Compound 7 (peptide)
peptide: {C20 diacid-γGlu}-RDGTAT[Orn]ATERLAHFLHRSSF[Sar]A[NMeI]LSSTEVGSNTP-NH2
modifications: lactam 2-7
SMILES: CC[C@H](C)[C@@H](C(=O)N[C@@H](CC(C)C)C(=O)N[C@@H](CO)C(=O)N[C@@H](CO)C(=O)N[C@H](C(=O)N[C@@H](CCC(=O)O)C(=O)N[C@H](C(=O)NCC(=O)N[C@@H](CO)C(=O)N[C@@H](CC(N)=O)C(=O)N[C@H](C(=O)N1CCC[C@H]1C(N)=O)[C@@H](C)O)C(C)C)[C@@H](C)O)N(C)C(=O)[C@H](C)NC(=O)CN(C)C(=O)[C@H](Cc1ccccc1)NC(=O)[C@H](CO)NC(=O)[C@H](CO)NC(=O)[C@H](CCCNC(=N)N)NC(=O)[C@H](Cc1c[nH]cn1)NC(=O)[C@H](CC(C)C)NC(=O)[C@H](Cc1ccccc1)NC(=O)[C@H](Cc1c[nH]cn1)NC(=O)[C@H](C)NC(=O)[C@H](CC(C)C)NC(=O)[C@H](CCCNC(=N)N)NC(=O)[C@H](CCC(=O)O)NC(=O)[C@@H](NC(=O)[C@H](C)NC(=O)[C@@H]1CCCNC(=O)C[C@H](NC(=O)[C@H](CCCNC(=N)N)NC(=O)CC[C@H](NC(=O)CCCCCCCCCCCCCCCCCCC(=O)O)C(=O)O)C(=O)NCC(=O)N[C@@H]([C@@H](C)O)C(=O)N[C@@H](C)C(=O)N[C@@H]([C@@H](C)O)C(=O)N1)[C@@H](C)O
Consider B2, for which the hCT-R EC50 [nM] (cAMP formation, 1321N1 cells expressing hCT-R) in test [1] is 0.289 nM. The hAMYR3 EC50 [nM] (cAMP formation, 1321N1 cells expressing hAMYR3) in test [2] stood at 0.032 nM.

B3: Compound 8 (peptide)
peptide: {C20 diacid-γGlu}-RDGTAT[Orn]ATQRLAHFLQRSSF[Sar]A[NMeI]LSSTEVGSNT[Hyp]-NH2
modifications: lactam 2-7
SMILES: CC[C@H](C)[C@@H](C(=O)N[C@@H](CC(C)C)C(=O)N[C@@H](CO)C(=O)N[C@@H](CO)C(=O)N[C@H](C(=O)N[C@@H](CCC(=O)O)C(=O)N[C@H](C(=O)NCC(=O)N[C@@H](CO)C(=O)N[C@@H](CC(N)=O)C(=O)N[C@H](C(=O)N1C[C@H](O)C[C@H]1C(N)=O)[C@@H](C)O)C(C)C)[C@@H](C)O)N(C)C(=O)[C@H](C)NC(=O)CN(C)C(=O)[C@H](Cc1ccccc1)NC(=O)[C@H](CO)NC(=O)[C@H](CO)NC(=O)[C@H](CCCNC(=N)N)NC(=O)[C@H](CCC(N)=O)NC(=O)[C@H](CC(C)C)NC(=O)[C@H](Cc1ccccc1)NC(=O)[C@H](Cc1c[nH]cn1)NC(=O)[C@H](C)NC(=O)[C@H](CC(C)C)NC(=O)[C@H](CCCNC(=N)N)NC(=O)[C@H](CCC(N)=O)NC(=O)[C@@H](NC(=O)[C@H](C)NC(=O)[C@@H]1CCCNC(=O)C[C@H](NC(=O)[C@H](CCCNC(=N)N)NC(=O)CC[C@H](NC(=O)CCCCCCCCCCCCCCCCCCC(=O)O)C(=O)O)C(=O)NCC(=O)N[C@@H]([C@@H](C)O)C(=O)N[C@@H](C)C(=O)N[C@@H]([C@@H](C)O)C(=O)N1)[C@@H](C)O
As for B3, in test [1], the hCT-R EC50 [nM] (cAMP formation, 1321N1 cells expressing hCT-R) is 0.129 nM. Moreover, the hAMYR3 EC50 [nM] (cAMP formation, 1321N1 cells expressing hAMYR3) in test [2] is 0.059 nM.

B4: Compound 10 (peptide)
peptide: {C20 diacid-γGlu}-RDGTAT[Orn]ATERLARFLQRSSF[Sar]A[NMeI]LSSTEVGSNT[Hyp]-NH2
modifications: lactam 2-7
SMILES: CC[C@H](C)[C@@H](C(=O)N[C@@H](CC(C)C)C(=O)N[C@@H](CO)C(=O)N[C@@H](CO)C(=O)N[C@H](C(=O)N[C@@H](CCC(=O)O)C(=O)N[C@H](C(=O)NCC(=O)N[C@@H](CO)C(=O)N[C@@H](CC(N)=O)C(=O)N[C@H](C(=O)N1C[C@H](O)C[C@H]1C(N)=O)[C@@H](C)O)C(C)C)[C@@H](C)O)N(C)C(=O)[C@H](C)NC(=O)CN(C)C(=O)[C@H](Cc1ccccc1)NC(=O)[C@H](CO)NC(=O)[C@H](CO)NC(=O)[C@H](CCCNC(=N)N)NC(=O)[C@H](CCC(N)=O)NC(=O)[C@H](CC(C)C)NC(=O)[C@H](Cc1ccccc1)NC(=O)[C@H](CCCNC(=N)N)NC(=O)[C@H](C)NC(=O)[C@H](CC(C)C)NC(=O)[C@H](CCCNC(=N)N)NC(=O)[C@H](CCC(=O)O)NC(=O)[C@@H](NC(=O)[C@H](C)NC(=O)[C@@H]1CCCNC(=O)C[C@H](NC(=O)[C@H](CCCNC(=N)N)NC(=O)CC[C@H](NC(=O)CCCCCCCCCCCCCCCCCCC(=O)O)C(=O)O)C(=O)NCC(=O)N[C@@H]([C@@H](C)O)C(=O)N[C@@H](C)C(=O)N[C@@H]([C@@H](C)O)C(=O)N1)[C@@H](C)O
B4: the hCT-R EC50 [nM] (cAMP formation, 1321N1 cells expressing hCT-R) in test [1] was found to be 0.345 nM. For the same molecule, in test [2], the hAMYR3 EC50 [nM] (cAMP formation, 1321N1 cells expressing hAMYR3) was 0.068 nM.

B5: Compound 6 (peptide)
peptide: {C20 diacid-γGlu}-RDGTAT[Orn]ATERLAHFLQRF[Sar]A[NMeI]LSSTEVGSNT[Hyp]-NH2
modifications: lactam 2-7
SMILES: CC[C@H](C)[C@@H](C(=O)N[C@@H](CC(C)C)C(=O)N[C@@H](CO)C(=O)N[C@@H](CO)C(=O)N[C@H](C(=O)N[C@@H](CCC(=O)O)C(=O)N[C@H](C(=O)NCC(=O)N[C@@H](CO)C(=O)N[C@@H](CC(N)=O)C(=O)N[C@H](C(=O)N1C[C@H](O)C[C@H]1C(N)=O)[C@@H](C)O)C(C)C)[C@@H](C)O)N(C)C(=O)[C@H](C)NC(=O)CN(C)C(=O)[C@H](Cc1ccccc1)NC(=O)[C@H](CCCNC(=N)N)NC(=O)[C@H](CCC(N)=O)NC(=O)[C@H](CC(C)C)NC(=O)[C@H](Cc1ccccc1)NC(=O)[C@H](Cc1c[nH]cn1)NC(=O)[C@H](C)NC(=O)[C@H](CC(C)C)NC(=O)[C@H](CCCNC(=N)N)NC(=O)[C@H](CCC(=O)O)NC(=O)[C@@H](NC(=O)[C@H](C)NC(=O)[C@@H]1CCCNC(=O)C[C@H](NC(=O)[C@H](CCCNC(=N)N)NC(=O)CC[C@H](NC(=O)CCCCCCCCCCCCCCCCCCC(=O)O)C(=O)O)C(=O)NCC(=O)N[C@@H]([C@@H](C)O)C(=O)N[C@@H](C)C(=O)N[C@@H]([C@@H](C)O)C(=O)N1)[C@@H](C)O
On to B5, for which, in test [1], the hCT-R EC50 [nM] (cAMP formation, 1321N1 cells expressing hCT-R) came to 0.327 nM. The hAMYR3 EC50 [nM] (cAMP formation, 1321N1 cells expressing hAMYR3) in test [2] amounted to 0.011 nM.

B6: Ref. 4 (peptide)
peptide: {C20 diacid-γGlu}-RCGTATCATERLA[Aad]FLQRSSF[Sar]A[NMeI]LSSTEVGSNT[Hyp]-NH2
modifications: disulfide 2-7
SMILES: CC[C@H](C)[C@@H](C(=O)N[C@@H](CC(C)C)C(=O)N[C@@H](CO)C(=O)N[C@@H](CO)C(=O)N[C@H](C(=O)N[C@@H](CCC(=O)O)C(=O)N[C@H](C(=O)NCC(=O)N[C@@H](CO)C(=O)N[C@@H](CC(N)=O)C(=O)N[C@H](C(=O)N1C[C@H](O)C[C@H]1C(N)=O)[C@@H](C)O)C(C)C)[C@@H](C)O)N(C)C(=O)[C@H](C)NC(=O)CN(C)C(=O)[C@H](Cc1ccccc1)NC(=O)[C@H](CO)NC(=O)[C@H](CO)NC(=O)[C@H](CCCNC(=N)N)NC(=O)[C@H](CCC(N)=O)NC(=O)[C@H](CC(C)C)NC(=O)[C@H](Cc1ccccc1)NC(=O)[C@H](CCCC(=O)O)NC(=O)[C@H](C)NC(=O)[C@H](CC(C)C)NC(=O)[C@H](CCCNC(=N)N)NC(=O)[C@H](CCC(=O)O)NC(=O)[C@@H](NC(=O)[C@H](C)NC(=O)[C@@H]1CSSC[C@H](NC(=O)[C@H](CCCNC(=N)N)NC(=O)CC[C@H](NC(=O)CCCCCCCCCCCCCCCCCCC(=O)O)C(=O)O)C(=O)NCC(=O)N[C@@H]([C@@H](C)O)C(=O)N[C@@H](C)C(=O)N[C@@H]([C@@H](C)O)C(=O)N1)[C@@H](C)O
For B6, the hCT-R EC50 [nM] (cAMP formation, 1321N1 cells expressing hCT-R) in test [1] amounted to 0.075 nM. Also, in test [2], the hAMYR3 EC50 [nM] (cAMP formation, 1321N1 cells expressing hAMYR3) was 0.031 nM.

B7: Compound 11 (peptide)
peptide: {C20 diacid-γGlu}-EDGTATKATERLAHFLQRSSF[Sar]A[NMeI]LSSTEVGSNT[Hyp]-NH2
modifications: lactam 2-7
SMILES: CC[C@H](C)[C@@H](C(=O)N[C@@H](CC(C)C)C(=O)N[C@@H](CO)C(=O)N[C@@H](CO)C(=O)N[C@H](C(=O)N[C@@H](CCC(=O)O)C(=O)N[C@H](C(=O)NCC(=O)N[C@@H](CO)C(=O)N[C@@H](CC(N)=O)C(=O)N[C@H](C(=O)N1C[C@H](O)C[C@H]1C(N)=O)[C@@H](C)O)C(C)C)[C@@H](C)O)N(C)C(=O)[C@H](C)NC(=O)CN(C)C(=O)[C@H](Cc1ccccc1)NC(=O)[C@H](CO)NC(=O)[C@H](CO)NC(=O)[C@H](CCCNC(=N)N)NC(=O)[C@H](CCC(N)=O)NC(=O)[C@H](CC(C)C)NC(=O)[C@H](Cc1ccccc1)NC(=O)[C@H](Cc1c[nH]cn1)NC(=O)[C@H](C)NC(=O)[C@H](CC(C)C)NC(=O)[C@H](CCCNC(=N)N)NC(=O)[C@H](CCC(=O)O)NC(=O)[C@@H](NC(=O)[C@H](C)NC(=O)[C@@H]1CCCCNC(=O)C[C@H](NC(=O)[C@H](CCC(=O)O)NC(=O)CC[C@H](NC(=O)CCCCCCCCCCCCCCCCCCC(=O)O)C(=O)O)C(=O)NCC(=O)N[C@@H]([C@@H](C)O)C(=O)N[C@@H](C)C(=O)N[C@@H]([C@@H](C)O)C(=O)N1)[C@@H](C)O
Regarding B7, the hCT-R EC50 [nM] (cAMP formation, 1321N1 cells expressing hCT-R) in test [1] worked out at 0.068 nM. Moreover, in test [2], the hAMYR3 EC50 [nM] (cAMP formation, 1321N1 cells expressing hAMYR3) amounted to 0.024 nM.

(Values after patent publication US20180071366A1.)
